We go through 19 molecules from article PMC8191301 (The Journal of Biological Chemistry, 2021).

No end group written: not given here.

The target in one assay is T1, human Proliferating Cell Nuclear Antigen (hPCNA) (human, UniProt P12004). Kind of assay: SPR.
T1 sequence (P12004 1-259): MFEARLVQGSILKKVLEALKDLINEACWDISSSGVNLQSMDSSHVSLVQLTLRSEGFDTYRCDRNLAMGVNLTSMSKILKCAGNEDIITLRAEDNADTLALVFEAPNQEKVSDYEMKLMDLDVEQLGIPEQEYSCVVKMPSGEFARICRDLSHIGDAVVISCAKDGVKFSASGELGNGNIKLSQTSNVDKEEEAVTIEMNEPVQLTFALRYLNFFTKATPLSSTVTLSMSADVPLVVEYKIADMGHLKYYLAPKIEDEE
Details: not given
With KRRQTRITEYFHSKR-NH2 (designed binder) [p21μ–RD2], binding was characterised by a dissociation constant (Kd) of 1.12 nM.

In the case of KRRQTSMTDHYHSKR-NH2 [p21μ–F150H], binding was put at a Kd of 159 nM.

Consider KRRQTSMDEFYHSKR-NH2 [p21μ–TD148/149DE], for which the “fold lower affinity than p21μ” value was determined as 28 fold.

For the molecule KRRQTSMEDFYHSKR-NH2 [p21μ–T148E], the “fold lower affinity than p21μ” value is roughly 6 fold.

As for KRRQRSMTDFYHSKR-NH2 [p21μ–T145R], the “fold decrease in affinity relative to p21μ” value came out at 7 fold.

Regarding KRRQTSMEEFYHSKR-NH2 [p21μ–TD148/149EE], the “fold lower affinity than p21μ” value worked out at 4 fold.

KRRQKSMTDFYHSKR-NH2 [p21μ–T145K]: the “fold decrease in affinity relative to p21μ” value is 8 fold.

Take KRRQRKMTDFYHSKR-NH2 [p21μ–TS145/146RK]: the Kd came out at 17.3 nM.

KRRQTSMTDYFHSKR-NH2 [p21μ–FY150/151YF] gave a dissociation constant Kd of 2.18 nM.

KRRQTSITDFYHSKR-NH2 [p21μ–M147I]: the Kd is 11.1 nM.

In the case of KRRDTSMTDFYHSKR-NH2 [p21μ–Q144D], binding was put at a Kd of 714 nM.

Molecule KRRQKRMTDFYHSKR-NH2 [p21μ–TS145/146KR] displayed a dissociation constant Kd of 37 nM.

In turn, KRRQRRMTDFYHSKR-NH2 [p21μ–TS145/146RR] had a Kd of 1.83 nM.

In turn, KRRNTSMTDFYHSKR-NH2 [p21μ–Q144N] had a dissociation constant Kd of 772 nM.

In the next assay the target is T1, human Proliferating Cell Nuclear …. Kind of assay: SPR.
Details: not given
The source holds these as a separate data set.
Consider KRRQKKITDYFHSKR-NH2 [p21μ–Pogo], for which binding was characterised by a dissociation constant (Kd) of 8.82 nM.

Take KRRQRRVTDFFHSKR-NH2 [p21μ–Cdt1]: the dissociation constant (Kd) worked out at 8.76 nM.

Regarding KRRMQTLESFFHSKR-NH2 [p21μ–pol η], the Kd stood at 2540 nM.

The target in another assay is hPCNA (Homo sapiens, UniProt P12004).
Sequence of hPCNA (P12004 whole entry): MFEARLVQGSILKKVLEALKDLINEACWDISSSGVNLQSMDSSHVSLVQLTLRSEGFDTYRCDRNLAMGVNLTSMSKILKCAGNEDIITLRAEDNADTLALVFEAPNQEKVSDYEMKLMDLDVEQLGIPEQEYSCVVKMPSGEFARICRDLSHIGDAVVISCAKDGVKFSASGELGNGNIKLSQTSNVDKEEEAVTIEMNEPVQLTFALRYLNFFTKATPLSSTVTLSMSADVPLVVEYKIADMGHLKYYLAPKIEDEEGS
Test: not given
The conditions noted are these: isothermal calorimetry; ref [22]; cited from earlier work.
For “Tyr151Phe^P8–modified p21 peptide: literature p21 (residues 139–160) peptide with Tyr151Phe modification (GRKRRQTSMTDFFHSKRRLIFS; UniProt P38936 139-160, looked up, variant Y151F) [reference compound]”, the “fold decrease in binding affinity compared with the analogous native peptide (residues 139–160)” value is 3 fold.

The same assay, now with this note: p21 protein binding hPCNA; ref [13], [14], [15]; cited from earlier work.
Take “p21: cell-cycle regulator protein, highest affinity hPCNA-interacting protein known”: the Kd is 2.5 to 90 nM.
